Several values for one entry are separate records, joined by “and”; a condition that tells them apart may be missing. Equal entries are not always repeated.
How the values were obtained:
3D7 PfAMA1 (DI + DII) [1] = molecular target: T1, 3D7 PfAMA1 (DI + DII) (Plasmodium falciparum 3D7, UniProt Q7KQK5 104-438); test: ITC
T1 sequence (looked up): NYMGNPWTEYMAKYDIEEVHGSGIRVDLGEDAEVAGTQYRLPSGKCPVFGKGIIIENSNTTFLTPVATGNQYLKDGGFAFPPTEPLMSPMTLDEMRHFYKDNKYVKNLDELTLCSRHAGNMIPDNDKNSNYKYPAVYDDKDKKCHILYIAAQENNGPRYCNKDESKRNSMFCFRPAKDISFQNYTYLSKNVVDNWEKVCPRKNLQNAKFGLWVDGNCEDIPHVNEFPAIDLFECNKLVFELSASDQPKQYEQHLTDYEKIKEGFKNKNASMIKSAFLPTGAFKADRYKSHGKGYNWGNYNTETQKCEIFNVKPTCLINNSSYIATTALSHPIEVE

3D7 PfAMA1 (DI + DII) [2] = molecular target: T1, 3D7 PfAMA1 (DI + DII); test: SPR

Binder: DITQQAKDIGAGPVASCFTTRMSPPQQICLNSVVNTALS (peptide, UniProt Q8IKV6 2021-2059, looked up) [PfRON2ed peptide (Asp2021-Ser2059)]
- Kd (3D7 PfAMA1 (DI + DII) [1]): 122 nM and 93.5 to 137 nM
- Kd (3D7 PfAMA1 (DI + DII) [2]): 21.9 ± 1.89 nM

From publication PMC7907217 (Biochemistry and Biophysics Reports, 2021)
